Reference: article PMC4715562 (Proteins, 2015)

Target: the molecule itself
Test: crystal structure

B1: Xrcc4-MyH7-1590-1657 (domain or fragment, human)
chain: GGSGERKISRIHLVSEPSITHFLQVSWEKTLESGFVITLTDGHSAWTGTVSESEISQEADDMAMEKGKYVGELRKALLSGAGPADVYTFNFSKESCYFFFEKNLKDVSFRLGSFNLEKVENPAEVIRELICYCLDTTAENQAKNEHHLRVVDSLQTSLDAETRSRNEALRVKKKMEGDLNEMEIQLSHANRMAAEAQKQVKSLQSLLKDTQIQL
modifications: reductively methylated
B1: binds.
